Laboratory results taken from article PMC10561363.

Molecular target: glutathione S-transferase (GST) fused to the C-terminus of SERT
Experiment: GST pull-down, immunoblot densitometry
Conditions: whole-cell lysates of transfected HEK-293 cells; n = 3; parent: est. 3.1; read off a plot

- response: 2.1 a.u.
Substance: YFP-tagged human MAD2, wild type (from UniProt Q13257) R133A
